Legend:
[1] = system: lung carcinoma cells (A549); experiment: FACS analysis of tumor cell binding; set-up: species or system human; conditions: 20 min on ice
Description: To analyze tumor cell binding, pancreas cancer cells (BXPC-3), stomach cancer cells (23132/87), lung carcinoma cells (A549) and malignant melanoma cells (HTB-69 and CRL-1424) were grown to subconfluency in complete medium, detached with Trypsin/EDTA and incubated on ice for 1 h for recreation. Tumor cells were subsequently incubated on ice with BARB4 antibody (diluted in PBS containing 0.01% sodium azide), or human isotype-matched control antibody (Chrompure human IgG, Dianova, Hamburg, Germany) for 20 min on ice. Following incubation, cells were incubated with a FITC-labeled rabbit anti-human IgG antibody (1:50, Dako, Germany) for 20 min on ice, and cells were analyzed by flow cytometry (FACScan; Becton Dickinson, USA).

[2] = system: human pancreas carcinoma cell-line BXPC-3; experiment: Immunofluorescence, endocytosis of conjugated BARB4; format: cell-based; conditions: 40 μg/ml conjugated antibody, 37° C., 30 minutes after binding
Description: Endocytosis was determined for BARB4 on human pancreas carcinoma cell-line BXPC-3. BARB4 antibody (purified) was conjugated with Fluorescent orange 548 reactive (Fluka, Buchs, Switzerland). Conjugated BARB4 antibody at a final concentration of 40 μg/ml was directly given to 1×10^6 cells and incubated for indicated times at 37° C. Cells were harvested, rinsed and resuspended in phosphate buffer saline pH 7,4 (PBS). 100 μl of each cell suspension was fixed on slides. Finally the slides were mounted with Fluorescent Mounting Medium (DakoCytomation, Carpinteria, USA) and analyzed by confocal microscopy. The data is illustrated in FIG. 4.

[3] = system: human pancreas carcinoma cells (BXPC-3); experiment: Glycosidase assay on cytospins, immunohistochemical staining; format: binding; conditions: BXPC-3 cytospins, biotinylated BARB4 100 μg/ml
Description: To determine whether O- or N-linked sugar residues are potentially involved in BARB4 binding to tumor cells, cytospin preparations of BXPC-3 cancer cells were incubated with N- or O-glycosidase. In brief, 4×10^5 human pancreas carcinoma cells (BXPC-3) were resuspended in 1 ml Dulbecco's phosphate buffered saline pH 7.2 (Sigma, Taufkirchen, Germany) and incubated with 10 U/ml N-glycosidase or 40 mU/ml O-glycosidase (both Roche Applied Science, Mannheim, Germany) for 2 hours at 37° C. Untreated cells in Dulbecco's phosphate buffered saline served as control. Cytospins were prepared and immunohistochemical staining with biotinylated BARB4 antibody (100 μg/ml) was performed.
After treatment of the cells, binding of BARB4 was evaluated by immunohistochemical staining (FIG. 5). […] BARB4 could therefore bind to an eptiope that includes or consists of a carbohydrate moiety that is removed or modified by O-glycosidase treatment.

BxPC-3 = experiment: MTT cell proliferation assay (Table 2); format: cell-based, human; conditions: for IC50, BA4 (24 hr): MTT 24 hr post-treatment; for IC50, BA4 (48 hr): MTT 48 hr post-treatment
Description: (§1) BARB4 was also evaluated for inhibition of proliferation of other cancer cell lines, including BxPC-3, COLO 205, H460, MDA-MB-231 and MIAPaCa-2 cells, as well as HT-29, HCT-116, BxPC-3, PANC-1, A549, PC-3 and HCT116 cells. In brief, various human cancer cell lines obtained from the American Type Culture Collection (ATCC) were established using standard in vitro culture methods and ATCC recommended media in 175 cm2 BD tissue culture treated flasks. In particular, MDAMB-231 cultures were incubated in a humidified 37° C., 100% air incubator, and BxPC-3, COLO 205, H460 and MIAPaCa-2 cultures were incubated in a humidified 37° C., 5% CO2, 95% air incubator. Cultures were sub-cultivated regularly to maintain log phase growth. All cell lines were brought up from cryopreservation using the original recommended ATCC media type and supplements. Cell line specific seeding densities were based on historical data from MIR Preclinical Services for growth over a 72 hr period.
(§2) On the day of IC50 plate seeding, the adherent cells were removed from the flasks for each cell line using trypsin EDTA, 1× (Cell Gro #25-053-CI). Trypsin was deactivated using complete media and the cells were pooled (each line done separately). The pooled cells in complete media were counted using trypan blue exclusion with a Neubauer Bright-Line® hemacytometer. The percent viability for each cell line was as follows:
(§3) Based on live cell counts, each suspension was then diluted in complete media (containing required supplements) to achieve the desired seeding density for each cell line. Once seeded, the cells were allowed to attach to the plates overnight and then treated with BA4 or cisplatin 24 hr post-seeding.
(§4) BARB4 was serially diluted 1:2 (2× final conc. in dilution reservoir=1600 μg/ml) in media to achieve a final 800 μg/ml starting concentration in the top dosage wells of the treatment plate by diluting 1:2 when transferred from the reservoir to the treatment plate. Antibody was added to columns 1 through 10 of the treatment plate. Column 11 was for cells+media only control and column 12 was for a media only blank. Cisplatin (positive control) was manufactured by Sigma (# M4394, lot 087K1349) and supplied as a fine, dark yellow powder, in an amber vial, stored at room temperature and housed in a covered box to prevent exposure to light. Cisplatin was previously dissolved in 0.9% saline to make a clear, colorless 4 mM stock solution, aliquoted and frozen at −20° C. Frozen aliquots were quickly thawed by holding the tubes in hand, placed on wet ice and diluted (2× conc. dilution reservoir) to achieve a final 1 mM starting concentration in the top dosage wells of the treatment plate (diluted 1:2 when transferred from the dilution reservoir to the treatment plate). Serial dilutions of 1:4 were made from wells 1 through 10 of the dilution reservoir prior to transfer to the treatment plate.
(§5) The BARB4 stock solution (10.5 mg/ml) was prepared by dilution in complete media according to the table below for a final starting treatment concentration of 800 μg/ml. The 4 mM stock solution of cisplatin in 0.9% saline was diluted in complete media for a final starting treatment concentration of 1 mM.
(§6) Cells were exposed to BARB4 or cisplatin for a 24 hr period. The plates were incubated overnight at 37° C. At 24 hr and 48 hr post-treatment, the MTT assay was performed as described below.
(§7) The anti-proliferative activity of BARB4 and cisplatin was evaluated using the MTT cell proliferation assay (ATCC catalog #30-1010K). The assay is based on the reduction of yellow tetrazolium MTT (3-(4,5-dimethylthiazolyl-2)-2,5-diphenyltetrazolium bromide) by metabolically active cells forming purple formazan crystals. […]

COLO 205 = experiment: MTT cell proliferation assay (Table 2); format: cell-based, human; conditions: EC50
Description: as §1, §2, §3, §4, §5, §6, §7

H460 = experiment: MTT cell proliferation assay (Table 2); format: cell-based, human; conditions: EC50
Description: as §1, §2, §3, §4, §5, §6, §7

MIAPaCa-2 = experiment: MTT cell proliferation assay (Table 2); format: cell-based, human; conditions: EC50
Description: as §1, §2, §3, §4, §5, §6, §7

[4] = BxPC-3, b280: really EC50 of total observed effect

B1: BARB4: human IgG antibody produced by hybridoma DSMZ Deposit No. DSM ACC2876; heavy chain SEQ ID NOs:1, 3, 5, 7, light chain SEQ ID NO:9 (antibody, V domains shown)
VH: QVQLVESGGGVVQPGRSLRLSCAASGFRFTTHGMHWVRQAPGKGLEWVAVISYNGRNKYYADYVNGRFTISRDDSRDTVFLQMNSLRPEDTAMYYCAKVRGDGYGDYGYFDYWGHGTLVSVSS
VL: QSALTQPRSVSGSPGQSVTISCTGTYNYVSWYQQHPGKAPKLMIFDVSRRSSGVPDRFSGSKSGNTASLTISGLQAEDEADYYCCSYGGTYLYVFGTGTTVTVLGQ
- tumor cell binding (FACS) [1]: binds
- endocytosis of antibody by cells (immunofluorescence) [2]: endocytosis
- surface binding on cells treated with N-glycosidase ([3]; 10 U/ml N-glycosidase 2 hours 37° C.): clear reduction of surface binding
- binding on cells treated with O-glycosidase ([3]; 40 mU/ml O-glycosidase 2 hours 37° C.): no effect
- IC50, BA4 (24 hr) (BxPC-3; [4]): >800 µg/mL
- IC50, BA4 (48 hr) (BxPC-3; [4]): >800 µg/mL
- IC50, BA4 (24 hr) (BxPC-3; BxPC-3 repeat, EC50): >800 µg/mL
- IC50, BA4 (48 hr) (BxPC-3; BxPC-3 repeat, EC50): >800 µg/mL
- IC50, BA4 (24 hr) (COLO 205; MTT 24 hr post-treatment): 66.8 µg/mL
- IC50, BA4 (48 hr) (COLO 205; MTT 48 hr post-treatment): 2.78 µg/mL
- IC50, BA4 (24 hr) (H460; MTT 24 hr post-treatment): 413 µg/mL
- IC50, BA4 (48 hr) (H460; MTT 48 hr post-treatment): >800 µg/mL
- IC50, BA4 (24 hr) (MIAPaCa-2; MTT 24 hr post-treatment): 34.9 µg/mL
- IC50, BA4 (48 hr) (MIAPaCa-2; MTT 48 hr post-treatment): 21.1 µg/mL

— patent US20090291083A1, “BARB4 TARGET, ANTIBODY DESIGNATED BARB4, BARB4 RELATED ANTIBODIES, AND METHODS OF MAKING AND USING SAME” (PATRYS LIMITED, priority 2008, published 2009)
